Measurements taken from publication PMC9071441.

Target: mNeonGreen-tagged T-bet DNA binding domain (aa 135-326) Q160A (mouse) (UniProt Q9JKD8)
Experiment: FRET or BRET; flow-cytometric FRET in HEK293T cells co-transfected with 730 ng of each vector for mTagBFP- and mNeonGreen-tagged proteins; read 32 hours after transfection; 405 nm laser line, 530/30 bandpass filter; DFRET efficiency

mNeonGreen-tagged T-bet DNA binding domain (aa 135-326) Q160A (mouse), sequence (Q9JKD8 135-326, stated change not applied): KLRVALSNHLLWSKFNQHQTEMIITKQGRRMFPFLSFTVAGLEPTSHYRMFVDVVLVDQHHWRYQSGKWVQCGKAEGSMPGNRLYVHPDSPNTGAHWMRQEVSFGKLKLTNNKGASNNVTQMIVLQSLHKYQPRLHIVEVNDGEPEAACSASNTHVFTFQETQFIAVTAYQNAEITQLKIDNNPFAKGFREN
mTagBFP-tagged GATA3 DNA binding domain (aa 259-369), sequence (P23772 259-369): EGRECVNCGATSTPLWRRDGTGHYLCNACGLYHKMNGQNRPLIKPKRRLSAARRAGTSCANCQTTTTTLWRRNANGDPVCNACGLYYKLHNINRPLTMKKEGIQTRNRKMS

**Q.** How did the reduction of the FRET interaction signal against WT T-bet DBD turn out when “mTagBFP-tagged GATA3 DNA binding domain (aa 259-369) (from UniProt P23772 259-369) (domain or fragment)” was run?
**A.** Its reduction of the FRET interaction signal against WT T-bet DBD is 50%.
